# Experiment: soluble fraction after stress (log2 fold change); higher = more stays soluble; pooled small domains, quantitative proteomics
# Settings: stress: 50 degC
# How it was run: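 Each library was heated to 50°C as a stress step. The libraries, made up of small protein domains, were pooled and analysed at high throughput by quantitative proteomics. The reported value is the base-two logarithm of the fold change in each protein's soluble amount after stress, taken as a measure of aggregation propensity. The higher the value, the more protein stays in solution.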
row,Sequence,soluble fraction (log2)
1,HMRNISLSLRWHSGEWTADRLKSEVLALPGAMDMTVFEPQSQAYLRVEQGFDTKLLPAGIDVH,-0.927
2,HMPLSVRQRMSDILSNLKTSDFTNFADLFDPKEGRTGITVTFIAILELLREFLIEVVQSDHYQPLHVRAAS,-0.291
3,HMRTLKDSTEYLIRSMLLRGEMKVGEIYSANALAKELNISNSPVREAMMSLVDRGLLENVRNRGFRVV,-1.44
4,HMTALSAREHEVLQLITRGYTADEIAAMLQISRHTALTYVRRIYSKLKVNSKAEAIFEVRQR,-0.577
5,HMGWEPTPVLVAARDISGGTVLDQDMLRVEAIPSRLVTPSIVRSDLLASVQDAKLLLPMKQGDLLNFNMLQ,-0.064
6,HMGGSIDITTAPPGAKIYLDADYYGKTPKRLENISAGTYRLHLLHPEKGEVYRSVTLNEKNGTLKIDENLN,0.124
7,HMNTEVDKVLLRSGEAYFGEVLLRNDELVMMKTQDGARFQFPVSEIKSIEKVSVADALRHINS,0.0758
8,HMITALLPGTVLIREFDGRDYHVTVATDGRFEMDGHKYPSLSAVAKHITGTQWSGPAFFGLN,-1.75
9,HMAEEFESMTEARRLELARLVDSRGFVRVTDAAEELGVSDVTIRGDLSELERRGLLTRVHGGAMPVT,0.0215
10,HMRARTQYWPFVEEKAAELKLPLHLVNVEPLFGEQKVVVHYTANGRIDFRELVHLLARRFHARIEMR,0.212
11,HMKQGKGIIVVDGKLMPEDFNVATLSLDEVESITVLKGEKAVALYGEKAKEREVLLITTQKG,0.423
12,HMQKTVLAASVYERMKERIMDQYYPPGERLNIDALAIDLAVSPTPIREALARLAAERLITFEAYKGYRVSP,-1.87
13,HMKDYKSSLQERVQAVGGGQLIYRVNREEGPDHSKTFYMDLFLGDRLIGTGSGRNKKQAEQQAAKEAIERG,0.0941
14,HMSRWHEFLNKSEDGMKELDEQNQKVLTLLILQRFYQTPFQAKEDEEFYREFFERLSSVNEILG,0.0126
15,HMGSQELIQLGERIRQKRKDSHLTQETFAEKAGISVNTVSRIEGGQAAMSIEIFAKLVEILDADANELLG,-1.14
16,HMADLVYLRKRLQDAIAQLPEDMRTAYTLFQIARRSIREIAELTGASESLVKVRIHRAKGKLQELLEDLR,-1.87
17,HMLAIKKGGIFAILGPNGSGKSTFSKVLAGHPAYTVVDGDIFFKGLSILDLEPEERSHLGIFLAFQ,-0.153
18,HMDQDIILHKVQPGDTLSKILLHYHSHQDRNKLQGLIAESMTANPFIKNPDLIYPGQLIQVPVPA,0.05
19,HMATVHVDGIQYDFSSPEQAKEFAYKWAKKHNLTWEVHGETIHIK,-0.0845
20,HMIMHLNQIIRNKRLAAGLTQEALAQKVGVTAPAVSKWEKGISYPDITLLPILARNLNTDVNTLLDFSA,-0.641
21,HMARAGKLAQDMAVWTKETMLNTERNFISLRHFKRELLRRTLAPGESEQTVRAMEEAGYIQVKDGLVFPIK,-1.74
22,HMNASTVTLENFEGAKYDDVYGKYDYQFSVTYEQTDKYESGVIISQKPEAGTKIIKGSQVSLVVAT,0.0657
23,HMLDSDARRRGLIEYLSLNGYATMRQLAGEFDVSINTIQRDITYLARYYPLETAYGRYGGGVYFEQNWQ,-1.56
24,HMYATQLLQLEEMGFFDRAENIRALRATNGNVNAAVERL,0.0407
25,HMAGTGKVNTGVANVRSGPGTNYEISGKIYADTEVSILETSNGWYKIKFGNLTGWMSGTVLDIK,-0.138
26,HMSSGLLTVQEQRILEHLANGERNGDIAGRLHISEGTVKWHLHNMYRKLDAATRTQAVARARALRL,-0.109

row,Sequence,soluble fraction (log2)
1,HMSPLDSHLGRRIALRRQQLNTSAADLEKAISMVPGSVARFEAGRQSLNATQLFTLSRALDVPVLYFFEG,-0.534
2,HMTQQYVEWKVYNVTTIKNKYGFRVKLIFQDGSDATQQKGGFTSKKAAEQARTEVIGQLYSNTYVVY,-4.49
3,HMNLPTSGVDALTPAERRVARMAGDGQSNREIAQTLFVTRKTVEIHLTSVYRKLGIASRAELSARL,-2.6
4,HMGPVRRDLEINGRMVPLTIREHARATRITLRIEPGGQALRLTIPPGLPTREVDSFLTRHHGWLMTKLAHI,-1.79
5,HMSDDIPVHYRLDVNDAARALKLLTDNGFSAETAESGLNVYMTRLQSAEAARLLVENNIAVYGLTAV,0.0267
6,HMRTSIWTAIAHSLRSDIGSGVYGPDDKLPTESALAARFGVNRHTVRHAIKALTDEGLVLPRRGAGVFVTS,-0.21
7,HMTLDSLEKLSVNDLEKMLVNMPVGYKTIFLLSVIDEYSHKEIGELLGITPETSRSQLFRAIKWIKTNIF,-0.428
8,HMLMLTPGQVSNSLNVSTATVRRWSARFARHLSPQPPNRKRSYTPDDLATLARVRDLSASGTSLAQIDIAL,-2.51
9,HMIAVLKQGVSKQQVENLITWFRSRGLDVHISEGKFQTIIGLIGDTSKVDIDLLNGLEIIESVKRI,-0.0376
10,HMQLVPGIGRLSARELEVFTLIGRGLGTSEIGKKLGVSAYTVQTHRNHIKEKLNLPNAAAITYWAIQWAHG,-2.14
11,HMLMLTPGQIAQTLDVSTATVRRWSARYARHLSPNTPGKKRSYTVDDLAVLTRVRDLSATGTPLAQIDQAL,-2.02
12,HMGQAAHYEGVKGDGESDTDVISRVLTAAGAEAQKDDIFVVKELIAGGKYSYTAYVYDGSVWAAM,-0.266
13,HMEASSTAIQAMIRRLIDDENPRKPLSDAKLADLLKSSGIPVARRTVAKYREAMNISASHERVRI,-0.356
14,HMPESETIMVDVKGAVQSEGVYELPSTARVNDAIEAAGGFSDQADKKSVNLAQKLSDEAVVYVASQGENV,0.207
15,HMTGDIGAEAAKAAALAHAGVTESQTAKMKVDRDWDDGRLEYDVEFDVGRTEYEYTIDGVTGAVLEYEQDI,0.0136
16,HMLEDIDNSIKKEIILEHYDKMLEFHGDYGAIIFRKLLHAYSKGYTGANEFRDLVNQISDKNIMRDLIESF,-1.19
17,HMAKDDFMSFVKAVWPEFIEGAHHRVIAQKFNDLATGKITRLIVNMPPRHTKSEFASYLLPAW,0.107
18,HMDTSISHLVGRTGEAVTDLRPAGTVMIDGELYDARATEGFIEKGEIVKAIKYQYGQLNVRRVSK,0.0877
19,HMDLPAEFSKPELETLFKRGKQSGELSLTEVRDALEAAQLPNKKTQTKVLKVLSDNAIHVLMDG,0.146
20,HMSSKTKVEDLGLSTRTLNALIGGSIKTAGGLTRKSESDLLSLDGLGEKGITEIKEALENIGLSLK,0.215
21,HMQPDDELVRLLLIKIFNDKQLKVNPAVINYLLRRIDRSFESINNFVKKIDEFSLEKGRKITVNLVSGFF,-0.653
22,HMYSMSAPMPGVILEIKVAPGDQVNKGDVVMVLEAMKMKNDLHAARTGTVESIDINSGEQVKYGQVLLRFV,-0.14
23,HMYDEAAIRKAVMTFVTDNRDERLDLAKISAVLTSKFGNINFDELGYKRFSSFIDSFPELRRNNTFVSLR,-0.312
24,HMKGMIKVASMSLGADLGLYSRHLKYLGIVHRVVEESGGQSVYIQKLNDLHTAKESLELYLKNELKI,-1.19
25,HMSVKTIRKTEFAKRLYSLMLEKNWNQSDLARASGMGRDSVSQYIRANNTPSPQNLKKLAEALGVEPVELY,-1.3
26,HMRSYTPGSAFRLSSVPVYNAETGPSIGVRSGTYYIHSLPVSNGRIRMTNLISRVGKPGQVSFWVEISR,-2.45

row,Sequence,soluble fraction (log2)
1,HMKTGIGIVEANGGLRLRSQASTSSDVLSTAHNGDNVVVIRQVGNWYLVNYNLKIGYMHSDYITFKE,-4.82
2,HMAIEMSTITKRVTSTGEIRYRALLQIRREDVNYTESRTFSKKSLAEAWLKKREVELEANPELLHQ,-1.32
3,HMQSAEMTLDREGQPVQVRVELTGNEARITFLSDQEQTREALDAGMAQLRELLEQQGMVLAGVTV,-0.0108
4,HMSISSSEAARSAVASSGGTVLGVSKASHGGYKAWAVRIQRADGSVVTGYVDRASGTVYDWVVNQAA,-0.3
5,HMKFDVNAAIRAVLNVTVDKGATLERIMKETNLTSDQLVLPIALLMKTERLHFKRSGTHEVYVSVGKAPDK,-3.02
6,HMHFIMEYRIRAYVDELFESAPRTQRAYELKIELTQNLIDKYYALVSEGKSEQDAYNLTVMSIGDVREL,-0.298
7,HMINFLSKREIEVLRLVADGLSNRDVGQYLFISESTVKRHLSTIYEKLAVKSRTQAIDHARRADL,-3.91
8,HMVKKYEKVKEYLLERILDGTYVPDLPIPPERELASLLDVNRMTVRRAVEELMYDGYLIRKKGSGTYLTR,-1.57
9,HMSNWTILIIQGSAHLIDLDSKITEIDGFGSFPTKILQDYNLNEEFEIFDTNVKMVNSVQSDLQSN,-2.56
10,HMNASVIADLFRQTGASVMIHGHTHRPDIHALEANGDAAFRAVLGAWHTEGSMIRVTQDDVTLIAFP,0.0376
11,HMTSSKISFIDPVNGGKVSVSLENSTLEKLQNRFGVNSVVRNEAGDVELKDKAQEFVAGWFADIAYTRG,0.0813
12,HMAGPGAEVVDRLIAVLTGERPATAADQVLLSILKGLGIGGVVLPSERTGLGWSGLYQRVKEITDMN,-1.29
13,HMRISLKAQVYEYLKQAIINGDLKVGEIYSEQYFADKLSISRTPVREAILQLQHENMVEVKANRGIIVK,-0.472
14,HMFFDSDTDIQNALNAENSIKKYQLFRTQTLYNSAQSDIDFVNQPEVKAKLFDALENLKNKLGFLAEPT,-0.247
15,HMNGEAQTMYVTARTLNVRKGPGTSYAKAGTLSRGTAVQVVGFSGNWAKLSNGYYVSTSYLAKI,-1.32
16,HMNMIGDVIRNLRTVSSMTQTELGQRMGVIKQTISNWEKNISTPSIDAIVKLSSIFNVPTDYLL,-1.06
17,HMKFTPPTLEQIKNEMLLKTDEYNADIQSDRFFTYYDSNGWMVGKNKMKKFLVSLVAVFAATSA,-0.446
18,HMANKLTSTNLAKQHKMGLSEMYAELMNSGYLIEKDGKYELTPLGISIGGESKPNRYKKGEFYFLWPSDIS,-0.29
19,HMSILYNAVKGTLVSSGALTADSWYKISSFGTASALPALKVGSIFKTPEGAGDAITLASGDSVYPLTLT,-1.26
20,HMPDAENFRYRVPYTTEQNRLQYYEGDIRAENADKARDQVMQDAQKYFAQNTAFTPNYIDTDIISLD,0.034
21,HMNVAETITLGKRLFNHALTILGKKQRNISRKQLKNFLNDLGLKDSKDLYESIGTGDKNPILMAQLLLG,-0.509
22,HMAPRSSAVYFYLSQVALKKNQPRKAEAMARRGLTVSQDANRRRALWQLILRSGQAQNNTRVIREAQQAL,0.19
23,HMGGLSAEQKNGIQSVLKNFDPKNLTSADAKSITSEFKKLGVQPGKDLETTMAASGFDAKEVGRLAF,0.0781
24,HMGSTVRIVVPAADIPAYKDIQPSDLEYREVPKDEISEDAVTDPQEVINKYSTSPLYAGWPINKNIIET,0.0298
